{
  "source": "patent US20180263259A1",
  "molecular_target": "ground chicken feathers (keratin)",
  "data": [
    {"substance": "FoodPro® PXT (enzyme)", "values": [
      {"measurement": "Soluble dry matter yield (%)", "value": 48.3, "unit": "%"}
    ]}
  ]
}
